± gives the uncertainty stated by the source.

First the molecules themselves.
B1: Ankyrin-1, residues 1405 to 1484; numbered along this chain, P16157 (parent)
chain: MKMAVISEHLGLSWAELARELQFSVEDINRIRVENPNSLLEQSVALLNLWVIREGQNANMENLYTALQSIDRGEIVNMLE

The series covers variants of B1. Put plainly: abundance fitness (aPCA) (normalised: wild type 0, dead -1); higher = more abundant; growth selection in yeast, the domain comes from the species named. To be noted: Homo sapiens.
Take S38D: the abundance fitness is -0.048 ± 0.2. As for N48C, the abundance fitness is -0.495 ± 0.17. For the variant N48G, the abundance fitness was -0.236 ± 0.055. To N48F belongs -0.896 ± 0.24; to N48W, -0.834 ± 0.2. To T65Y belongs -0.132 ± 0.11. T65C: the abundance fitness is -0.002 ± 0.087. As for T65K, the abundance fitness is -0.055 ± 0.12.

For T65I, the abundance fitness was -0.209 ± 0.14. With T65W, the abundance fitness was -0.291 ± 0.083. Then T65R, with -0.04 ± 0.044; and T65P, with 0.095 ± 0.065.

Turning to T65F, the abundance fitness is -0.095 ± 0.083. Take G11R: the abundance fitness is -0.41 ± 0.084. Then G11H, with 0.028 ± 0.4; and G11Y, with -0.481 ± 0.28. Then G11T, with -0.371 ± 0.1. As to G11E, the abundance fitness is 0.195 ± 0.14.

As to G11M, the abundance fitness was -0.447 ± 0.13. To G11K belongs -0.362 ± 0.17; to Q22A, -0.066 ± 0.063; to Q22L, -0.126 ± 0.052.

Consider Q22I, for which the abundance fitness is -0.276 ± 0.15.

With Q22G, the abundance fitness is -0.08 ± 0.05. On to K2T, for which the abundance fitness is -0.254 ± 0.084. As for K2V, the abundance fitness was -0.089 ± 0.057.

Consider K2W, for which the abundance fitness turned out to be 0.098 ± 0.078. With K2G, the abundance fitness was -0.147 ± 0.048.

With K2Y, the abundance fitness is -0.318 ± 0.11. For I75C, the abundance fitness was -0.734 ± 0.23.

I75F: the abundance fitness was -0.785 ± 0.45. To I75G belongs -0.509 ± 0.073. As to I75M, the abundance fitness is -0.256 ± 0.17. To L79Y belongs -0.319 ± 0.14; to L79A, 0.002 ± 0.064; to N77E, -0.111 ± 0.11. Consider Q42A, for which the abundance fitness was -0.257 ± 0.064. Regarding Q42Y, the abundance fitness was -0.864 ± 0.28. Then Q42P, with -1.04 ± 0.23; and Q42L, with -0.863 ± 0.11; and Q42D, with -0.698 ± 0.17. Then Q42W, with -0.794 ± 0.17; and L67C, with -0.743 ± 0.28. Turning to L67H, the abundance fitness was -0.911 ± 0.34. To L67A belongs -0.895 ± 0.22.

For E16C, the abundance fitness was -0.271 ± 0.083. To E16V belongs -0.037 ± 0.05. On to N62V, for which the abundance fitness was found to be 0.071 ± 0.065. To N62Y belongs 0.002 ± 0.11; to N62L, -0.037 ± 0.09; to N62S, -0.081 ± 0.076. Then L21A, with -1.02 ± 0.28; and L21I, with -0.425 ± 0.38.

For S69V, the abundance fitness was 0.029 ± 0.044.

As for S69N, the abundance fitness is -0.106 ± 0.11. Regarding S69R, the abundance fitness is -0.006 ± 0.053. Then S69H, with 0.342 ± 0.18; and S69D, with -0.06 ± 0.087; and E20R, with -0.127 ± 0.053. With E20C, the abundance fitness is -0.125 ± 0.077. Turning to E20S, the abundance fitness was -0.145 ± 0.049. Then E20Y, with -0.286 ± 0.12; and E20I, with -0.135 ± 0.12; and E20A, with -0.136 ± 0.059. To E20H belongs -0.12 ± 0.1. Then E20V, with -0.175 ± 0.062. Consider M3N, for which the abundance fitness was -0.748 ± 0.47. With M3A, the abundance fitness is -0.435 ± 0.08.

Take M3D: the abundance fitness was -0.332 ± 0.28. Then M3P, with -0.474 ± 0.076; and M3L, with 0.208 ± 0.049. Then V33I, with -0.018 ± 0.13; and V33M, with -0.034 ± 0.076; and V33E, with -0.014 ± 0.068. As for V33W, the abundance fitness was -0.073 ± 0.07. For V33S, the abundance fitness is -0.03 ± 0.061.

For A4H, the abundance fitness was -0.622 ± 0.28. Then A4G, with 0.084 ± 0.071; and A4P, with -0.612 ± 0.19. Take A4E: the abundance fitness is -0.142 ± 0.18. Then A4N, with -0.035 ± 0.13; and A4F, with -0.206 ± 0.14; and M78F, with -0.146 ± 0.11. To M78W belongs -0.19 ± 0.075; to M78Q, -0.061 ± 0.098; to M78L, 0.001 ± 0.059. As for M78G, the abundance fitness was -0.085 ± 0.065. As to M78R, the abundance fitness was 0.034 ± 0.051. To V44N belongs 0.296 ± 0.084; to V44C, 0.05 ± 0.062; to V44E, -0.058 ± 0.12. To V44Y belongs 0.03 ± 0.09; to E61A, 0.165 ± 0.21; to E61V, -0.523 ± 0.5. To E61Q belongs 0.459 ± 0.34. Consider S43V, for which the abundance fitness is -0.757 ± 0.11. To S43D belongs -0.503 ± 0.15; to S43M, -1.05 ± 0.32; to V25A, 0.028 ± 0.05. Then V25G, with -0.119 ± 0.038; and V25L, with -0.073 ± 0.036; and V25Y, with 0.143 ± 0.097. Then V25M, with -0.056 ± 0.12.

Consider V25W, for which the abundance fitness was -0.265 ± 0.069.

A15I: the abundance fitness was 0.132 ± 0.072.

Turning to A15V, the abundance fitness is 0.066 ± 0.047. To A15K belongs -0.251 ± 0.22; to A15Q, -0.171 ± 0.13; to A15L, 0.076 ± 0.049. On to N57H, for which the abundance fitness was -0.255 ± 0.29.

Consider N57C, for which the abundance fitness is -0.168 ± 0.21. Consider N57R, for which the abundance fitness was -0.191 ± 0.11. Then N57K, with -0.117 ± 0.11; and N57M, with -0.075 ± 0.13; and D27T, with -0.236 ± 0.14.

On to D27K, for which the abundance fitness was -0.508 ± 0.15. For the variant D27W, the abundance fitness is -0.89 ± 0.15. Then D27F, with -0.436 ± 0.2. Regarding D27N, the abundance fitness was -0.49 ± 0.22. Take D27G: the abundance fitness is -0.573 ± 0.081. Then D27C, with -0.063 ± 0.15; and D27Y, with -0.597 ± 0.2. For L40K, the abundance fitness worked out at 0.182 ± 0.06.

For L40F, the abundance fitness was 0.015 ± 0.067. Turning to L40M, the abundance fitness was -0.067 ± 0.081.

For L40G, the abundance fitness was -0.286 ± 0.06. Then L40N, with -0.372 ± 0.11. Regarding N37R, the abundance fitness was -0.186 ± 0.092. For the variant N37E, the abundance fitness was -0.005 ± 0.082. To N37S belongs -0.064 ± 0.09. Take N37P: the abundance fitness was -1.09 ± 0.48. To N37K belongs 0.023 ± 0.13.

Regarding G55F, the abundance fitness was -0.765 ± 0.33. Consider G55W, for which the abundance fitness is -1.01 ± 0.42.

Consider G55M, for which the abundance fitness is -0.661 ± 0.46. On to G55K, for which the abundance fitness is -0.666 ± 0.44. Then R30W, with -0.328 ± 0.076; and R30S, with -0.139 ± 0.062; and R30C, with -0.022 ± 0.12. As for H9R, the abundance fitness was -0.33 ± 0.083. Consider H9L, for which the abundance fitness was -0.438 ± 0.1. With H9N, the abundance fitness is -0.019 ± 0.18.

H9C: the abundance fitness was 0.011 ± 0.1. Then E54Q, with -0.118 ± 0.039; and E54A, with -0.496 ± 0.077. Then E54D, with -0.3 ± 0.1; and E54K, with -0.29 ± 0.12. Then E54G, with -0.115 ± 0.049; and E54M, with -0.294 ± 0.058. Regarding E54S, the abundance fitness is -0.136 ± 0.052. Consider E8L, for which the abundance fitness is -0.383 ± 0.067. Regarding A66S, the abundance fitness is -0.26 ± 0.069. With A66I, the abundance fitness was -0.564 ± 0.28. To A66D belongs -0.884 ± 0.15; to A66Y, -0.494 ± 0.11. For the variant A66T, the abundance fitness was -0.794 ± 0.13. With R53G, the abundance fitness is -0.507 ± 0.058. For F23V, the abundance fitness was -0.144 ± 0.067. For F23H, the abundance fitness was -0.829 ± 0.36. As to F23Q, the abundance fitness was -0.883 ± 0.24. Then F23I, with 0 ± 0.1; and F23E, with -0.911 ± 0.35; and F23M, with -0.693 ± 0.14. To F23Y belongs -0.478 ± 0.12. To E80N belongs -0.045 ± 0.14. Regarding E80C, the abundance fitness was -0.092 ± 0.099. To E80Y belongs -0.048 ± 0.1.

(Values after the Human Domainome abundance scans (Beltran et al. 2025).)
